Experiment [1] addresses Aβ1-40 amyloid (amyloid form of the Aβ1-40 peptide). The experiment in a line: ELISA on immobilized Aβ1-40 amyloid, anti-Thio detection.
Experiment [2] has the same target. Described as above. This is another data set of the same source.

Where two headings read alike, the source gives them in different places.

Data on 1 substance can be found in patent publication US20070093415A1.

Chain of Thio (recombinant thioredoxin without the Aβ-peptide binding sequence) (P0AA25 2-109): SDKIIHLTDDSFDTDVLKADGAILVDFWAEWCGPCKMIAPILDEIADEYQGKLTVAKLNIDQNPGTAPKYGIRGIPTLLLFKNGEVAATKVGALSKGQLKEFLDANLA

Take “Thio (recombinant thioredoxin without the Aβ-peptide binding sequence) (from UniProt P0AA25 2-109)”: the figures for the concentration below which no binding was seen in experiment [1] and in experiment [2] were above 100 µM and above 200 µM, respectively.
